The source of these data is PMC10607743, “An Enzymatic Strategy for the Selective Methylation of High-Value-Added Tetrahydroprotoberberine Alkaloids” (International Journal of Molecular Sciences, 2023).

Data set [1] has as its system Oc1cc2c(cc1O)C1Cc3ccc(O)c(O)c3CN1CC2. The experiment in a line: purified protein. Conditions: 100 mM Tris-HCl, 37 °C, substrate 50-500 μM, methyl donor SAM (concentration and pH not given).
The target of data set [2] is T1, PsSOMT (Papaver somniferum, UniProt I3PLQ7).
T1 construct: gene SOMT3
Conditions: 100 mM Tris-HCl, 37 °C, substrate 50-500 μM; methyl donor SAM (concentration and pH not given).

T1 sequence (I3PLQ7 whole entry): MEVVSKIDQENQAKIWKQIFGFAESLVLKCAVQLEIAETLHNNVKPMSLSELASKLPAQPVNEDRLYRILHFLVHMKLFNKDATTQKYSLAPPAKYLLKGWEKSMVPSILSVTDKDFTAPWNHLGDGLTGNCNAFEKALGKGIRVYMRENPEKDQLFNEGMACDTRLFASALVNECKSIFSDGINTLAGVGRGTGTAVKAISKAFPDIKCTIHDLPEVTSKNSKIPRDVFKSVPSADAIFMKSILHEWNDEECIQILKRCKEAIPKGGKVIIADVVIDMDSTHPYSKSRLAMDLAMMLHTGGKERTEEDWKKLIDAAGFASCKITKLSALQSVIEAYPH

For orientation: Km means the concentration of substrate that gives half-maximal velocity. As a reminder, the Vmax is the top rate of the reaction or transport when substrate is in excess. In general, kcat refers to the maximal rate divided by the concentration of active sites. Usually kcat/Km stands for the turnover number divided by the Michaelis constant. As for Cj4’OMT (Coptis japonica), in data set [1], the Km was found to be 83.50 ± 19.72 µM, the Vmax was found to be 1.09 µmol/min/mg, the kcat worked out at 1.09 ± 0.08 s⁻¹ and the kcat/Km turned out to be 13000 M⁻¹ s⁻¹.

Turning to `Oc1cc2c(cc1O)C1Cc3ccc(O)c(O)c3CN1CC2` (centres unmarked) [2,3,9,10-tetrahydroxyberbine], the Km in data set [2] turned out to be 53.8 ± 12 µM.
